# Measured values taken from the supplement of paper PMC12764529.
# ± gives the half width of the 95% confidence interval.
# Experiments:
# [1] = folding stability dG unfold (combined trypsin and chymotrypsin); higher = more stable
# Method in brief: (§1)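 Digests were run with trypsin and chymotrypsin at 11 concentrations in threefold dilutions, plus a no-protease condition, on designed mini-proteins in a PA-tagged cDNA display construct. The mini-proteins were under 80 residues, had no cysteine, and were kept only when AlphaFold2 dimer inter-PAE was above 15. After sequencing, Bayesian fitting of the counts gave K50, from which unfolding free energy was derived against a sequence-predicted unfolded-state K50 and a shared folded-state K50, per protease or combined.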
# [2] = folding stability dG unfold from chymotrypsin proteolysis; higher = more stable
# Method in brief: as §1
# [3] = folding stability dG unfold from trypsin proteolysis; higher = more stable
# Method in brief: as §1
Sequence,folding stability dG unfold [1],folding stability dG unfold [2],folding stability dG unfold [3]
SAGGSAGGSAGGDDDWRIMINIEIWPYPNYVRIRFPIMIIPPDGKLIGSVEVTFWIPANDSAGGSAGGSAGG [r7_812_TrROS],3.7 ± 0.38 kcal/mol,3.84 ± 0.37 kcal/mol,3.2 ± 0.18 kcal/mol
SAGGSAGGSAGGDDNDKEPIGEVTVEVIIPPQIPIRIRWDIYKDPPNGNAMMNMDIDIHSAGGSAGGSAGGS [r10_6_TrROS],0.719 ± 0.22 kcal/mol,0.968 ± 0.12 kcal/mol,0.638 ± 0.12 kcal/mol
SAGGSAGGSAGGDKNGKKELRPEVKIKVKIEAEIEPFRYPNNGMPMWILKISIEITSIDSAGGSAGGSAGGS [r10_877_TrROS],4.5 ± 0.19 kcal/mol,4.75 ± 0.18 kcal/mol,2.96 ± 0.18 kcal/mol
SAGGSAGGSAGGDLNDAEIIDIYRDPDSDYYYAVFRGPDGGTYLVRFDPNSDRVEVIPLSAGGSAGGSAGGS [r10_674_TrMRF],3.05 ± 0.059 kcal/mol,3.387 ± 0.024 kcal/mol,2.27 ± 0.1 kcal/mol
SAGGSAGGSAGGDNTKTLVLVIKVDENVTPEEIKKKLKDLGFKNVKIEKVGNYAVVTVSSAGGSAGGSAGGS [r10_868_TrMRF],2.92 ± 0.052 kcal/mol,3.149 ± 0.03 kcal/mol,2.58 ± 0.074 kcal/mol
SAGGSAGGSAGGDWKMIEFYIPIEPDEPITIEIPDGVRIQIWRVDGYYKVTIMIPLEDISAGGSAGGSAGGS [r10_355_TrROS],3.17 ± 0.18 kcal/mol,3.71 ± 0.083 kcal/mol,2.42 ± 0.14 kcal/mol
SAGGSAGGSAGGEEPVTFMVRIPIRRRDPDGNPEPVAEIDINVTMPPEDAERIIKELIKSAGGSAGGSAGGS [r10_574_TrROS],-0.326 ± 0.22 kcal/mol,-0.547 ± 0.76 kcal/mol,-0.245 ± 0.34 kcal/mol
SAGGSAGGSAGGEEVTIVVKSKEDIEALLPPGWKVTKIEEIYVDKETGEKYYKITVKKESAGGSAGGSAGGS [r10_256_TrROS_Hall],4.06 ± 0.12 kcal/mol,3.88 ± 0.062 kcal/mol,4.23 ± 0.17 kcal/mol
SAGGSAGGSAGGEIKGKKFKIVKIVEVRYDKETKEFYVRIYIEDTNEIITVRLEDLPEELSAGGSAGGSAGG [r7_304_TrROS_Hall],2.25 ± 0.18 kcal/mol,2.29 ± 0.025 kcal/mol,1.83 ± 0.077 kcal/mol
SAGGSAGGSAGGEIKSGDKVVLVFNEDGKGYKAYYEEELEKLLKEDPKIKKVLVVDVPAESAGGSAGGSAGG [r7_118_TrMRF],-0.429 ± 0.22 kcal/mol,-1.04 ± 0.77 kcal/mol,-0.173 ± 0.064 kcal/mol
SAGGSAGGSAGGEIPIKIRPYDPKDGEPKDEHPIPFDTPNGNSLDEIAKQLPPDHFEVDISAGGSAGGSAGG [r17_339_TrROS],0.875 ± 0.059 kcal/mol,1.11 ± 0.018 kcal/mol,0.382 ± 0.067 kcal/mol
SAGGSAGGSAGGEKKKIAKKIKEELEKKGIKVKKVETSEDYIYITFEDGSKKKIKIDKGSAGGSAGGSAGGS [r10_169_TrMRF],1.74 ± 0.2 kcal/mol,1.6 ± 0.18 kcal/mol,2.1 ± 0.16 kcal/mol
SAGGSAGGSAGGELKAKFETFPSPYGKVILAEAEFEEPNLLAAIVIDEDGVPHLLVVSPDSAGGSAGGSAGG [r7_187_TrMRF],0.952 ± 0.12 kcal/mol,0.858 ± 0.076 kcal/mol,1.13 ± 0.064 kcal/mol
SAGGSAGGSAGGELVLKIKVKPGEKVKLKLKLFDKNGKLVEEFEVEVEVVKEGDTLYIRLSAGGSAGGSAGG [r7_63_TrROS_Hall],3.67 ± 0.11 kcal/mol,4.03 ± 0.052 kcal/mol,2.69 ± 0.064 kcal/mol
SAGGSAGGSAGGENDWIPIRMEMTFKLPNGVKITIKMEMWVQPDGDILGMRIHDIEIEVPSAGGSAGGSAGG [r7_356_TrROS],4.54 ± 0.21 kcal/mol,4.75 ± 0.12 kcal/mol,3.6 ± 0.21 kcal/mol
SAGGSAGGSAGGENPEYKPKLLVLVKLEVNGEYYYREFETLEELENYNDPNLKVVAVADLSAGGSAGGSAGG [r7_793_TrMRF],1.02 ± 0.083 kcal/mol,0.653 ± 0.11 kcal/mol,1.27 ± 0.033 kcal/mol
SAGGSAGGSAGGEPELVFKVRVRTKDGRELEIEVSAEDLEKLLEALPDIEEVEIEEVEPSAGGSAGGSAGGS [r10_437_TrROS_Hall],2.6 ± 0.14 kcal/mol,2.68 ± 0.071 kcal/mol,2.39 ± 0.087 kcal/mol
SAGGSAGGSAGGFRIKITEIWPISMEMRKPDPENGKWKEQPMTIMIIRIKIENLPPGAKISAGGSAGGSAGG [r17_530_TrROS],3.41 ± 0.1 kcal/mol,3.9 ± 0.079 kcal/mol,2.54 ± 0.048 kcal/mol

Sequence,folding stability dG unfold [1],folding stability dG unfold [2],folding stability dG unfold [3]
SAGGSAGGSAGGFTVTVVEPVDPNDPAFKKLMEERGLPPEEVVATKTLTADSEEEIAALLSAGGSAGGSAGG [r11_83_JUSTAS],0.238 ± 0.12 kcal/mol,0.219 ± 0.15 kcal/mol,0.283 ± 0.099 kcal/mol
SAGGSAGGSAGGGELKELLKKNPGPLLLERPENTVSLILYDPKTGTYTVLTFSPTEPIPLSAGGSAGGSAGG [r7_84_JUSTAS],1.52 ± 0.14 kcal/mol,1.69 ± 0.11 kcal/mol,1.27 ± 0.056 kcal/mol
SAGGSAGGSAGGGITIKGPGSVTVTVPASDVASISVDPATGTVTVEIPATGTTLTVPPASAGGSAGGSAGGS [r10_200_JUSTAS],0.604 ± 0.07 kcal/mol,0.238 ± 0.033 kcal/mol,1.03 ± 0.037 kcal/mol
SAGGSAGGSAGGGKLRIKLYHPETGKISEIEVEVPDKPLEEVLEELEKELGVEVVDASLESAGGSAGGSAGG [r7_590_TrMRF],1.44 ± 0.14 kcal/mol,1.68 ± 0.045 kcal/mol,0.941 ± 0.054 kcal/mol
SAGGSAGGSAGGGKTVVYRFPASLTPEQAVDEITAKVPPNYPVIVEYHPESGTFVAYVPSAGGSAGGSAGGS [r10_163_TrMRF],0.666 ± 0.15 kcal/mol,0.743 ± 0.29 kcal/mol,0.725 ± 0.1 kcal/mol
SAGGSAGGSAGGGLEEIKEAIKKLPENVKEITIKLKDGSTIKIRVEKDKDGKYKITIEPSAGGSAGGSAGGS [r10_1017_TrROS_Hall],2.5 ± 0.22 kcal/mol,2.68 ± 0.15 kcal/mol,2.41 ± 0.3 kcal/mol
SAGGSAGGSAGGGLVPIPVNAILLDENGVPKGTFDGYPLLKAGIPLEEFAKKYGFKVETSAGGSAGGSAGGS [r10_153_TrMRF],-0.552 ± 0.16 kcal/mol,-0.57 ± 0.24 kcal/mol,-1.08 ± 0.37 kcal/mol
SAGGSAGGSAGGGMAYTVETEVTLTPDGTRVVRTTVTIEDTEVEETHVTPVAPAAPEGLSAGGSAGGSAGGS [r10_898_JUSTAS],-0.231 ± 0.081 kcal/mol,-0.079 ± 0.06 kcal/mol,-0.806 ± 0.17 kcal/mol
SAGGSAGGSAGGGMIPVSTSETVVPGPSRLVRRTTTTYRDPVTGKLYTTSSTTVLPPAASAGGSAGGSAGGS [r10_190_JUSTAS],0.963 ± 0.045 kcal/mol,1.44 ± 0.064 kcal/mol,-0.396 ± 0.12 kcal/mol
SAGGSAGGSAGGGMKVEKEESPDSTVTETITDPSSENTTIVTKEVLPDGSLKVTETKELPSAGGSAGGSAGG [r7_828_JUSTAS],0.717 ± 0.14 kcal/mol,0.987 ± 0.06 kcal/mol,-0.224 ± 0.087 kcal/mol
SAGGSAGGSAGGGMPSYVTKTTTTTVKITNTTTGGNSTTTTTSTVTVTTTTLLPPGLLASAGGSAGGSAGGS [r10_300_JUSTAS],0.835 ± 0.074 kcal/mol,1.2 ± 0.028 kcal/mol,-0.147 ± 0.052 kcal/mol
SAGGSAGGSAGGGMPVEMKITLYDPDGTKIGEYTLKVKSEEELKKAVEEKGYNYEVDKESAGGSAGGSAGGS [r10_958_JUSTAS],0.29 ± 0.1 kcal/mol,0.17 ± 0.16 kcal/mol,0.198 ± 0.067 kcal/mol
SAGGSAGGSAGGGMRFTVEVEPGKVSYSPGIVNKNTPGSSVSEIITVTVVETNPEKLLLSAGGSAGGSAGGS [r10_654_JUSTAS],0.211 ± 0.19 kcal/mol,0.638 ± 0.093 kcal/mol,-0.499 ± 0.29 kcal/mol
SAGGSAGGSAGGGMTITTTSSVSESDGGLTLSTTTTAFDPVTGTWTPLTTTTTTLPPTTSAGGSAGGSAGGS [r10_51_JUSTAS],1.24 ± 0.053 kcal/mol,0.778 ± 0.041 kcal/mol,1.65 ± 0.065 kcal/mol
SAGGSAGGSAGGGMTPVTTTTTVTVSPDATPVNFTTPDGTTVTVTPVPSSDTATVTTTVSSAGGSAGGSAGG [r7_796_JUSTAS],0.724 ± 0.06 kcal/mol,0.104 ± 0.03 kcal/mol,1.24 ± 0.06 kcal/mol
SAGGSAGGSAGGGMTVLSFTMPKEEVEKYFEEKGLDATEMTISPGPGDTYSVTVLDPGSSAGGSAGGSAGGS [r10_999_JUSTAS],0.151 ± 0.12 kcal/mol,-0.0653 ± 0.17 kcal/mol,0.33 ± 0.089 kcal/mol
SAGGSAGGSAGGGNLALPPRYRITVRIEKDGSTSTVEFDSEEELAALDDPGLTVTEVREESAGGSAGGSAGG [r7_793_JUSTAS],0.745 ± 0.11 kcal/mol,1.18 ± 0.036 kcal/mol,-0.743 ± 0.35 kcal/mol
SAGGSAGGSAGGGRMLLTETETIFSPSGGESVVTRLVTVFRPPPPVFLPDPEGRWSELVSAGGSAGGSAGGS [r10_330_JUSTAS],0.856 ± 0.22 kcal/mol,0.769 ± 0.3 kcal/mol,0.999 ± 0.14 kcal/mol
